Measured values from paper PMC509406, “Emerin Caps the Pointed End of Actin Filaments: Evidence for an Actin Cortical Network at the Nuclear Inner Membrane” (PLoS Biology, 2004).
Values joined by “and” are separate entries in the source; they are usually repeats but may differ in a detail not shown here. Equal values may be shown once.

Legend:
[1] = target: T1, rabbit actin (Cytoskeleton, catalog #AKL95) (rabbit, UniProt P68135 1-377); assay: pointed-end elongation of gelsolin–actin seeds (pyrene–actin) against emerin concentration; gelsolin–actin dimers (10 nM), 2 μM actin, 0 to 2 μM wild-type emerin 1–222; apparent Kd from the reduction of the rate; n = 12; conditions: both partners purified
[2] = target: T2, purified actin (F-actin or G-actin; species not told for these experiments) ( (purified chicken and rabbit …, UniProt P68135 1-377); assay: F-actin column (affinity determination); F-actin column used to determine the affinity of F-actin for emerin; n = 8; conditions: both partners purified
[3] = target: T1, rabbit actin (Cytoskeleton, catalog …); assay: depolymerization of actin filaments grown from gelsolin–actin seeds against emerin concentration; filaments from 2 μM actin and gelsolin–actin seeds diluted 10-fold to 0.2 μM actin with 0–2 μM emerin 1–222; apparent Kd; n = 6; conditions: both partners purified
[4] = target: T1, rabbit actin (Cytoskeleton, catalog …); assay: cell-based or functional assay
[5] = target: T1, rabbit actin (Cytoskeleton, catalog …); assay: pyrene–actin polymerization rate against emerin concentration; 2 μM rabbit actin with 5% pyrene–actin; emerin 0.1 to 4.4 μM added just prior to polymerization; R/cR; equilibrium affinity from activity; conditions: both partners purified
[6] = target: T2, purified actin (F-actin or G-actin; …); assay: co-sedimentation; actin polymerized in KMEI buffer, incubated 30 min with recombinant emerin (4 μM in text and methods, 2 μM in the legend), pelleted at 100,000g for 1 h; SDS-PAGE, Coomassie blue; conditions: both partners purified

Binder	Kd [1]	Kd [2]	Kd [3]	critical concentration for pointed-end growth (5 nM gelsolin–actin seeds, 625 nM emerin, 16 h at room temperature) [4] [fold]	rate of depolymerization of filaments grown from gelsolin–actin seeds, diluted to 0.2 μM actin, emerin 0–2 μM [4] [fold]	rate of depolymerization of preformed filaments capped at the barbed end with capping protein (CapZ), diluted into 0.2 μM actin (data not shown) [4] [fold]	rate of pyrene–actin polymerization (R/cR), emerin 0.1 to 4.4 μM, 2 μM actin [4] [fold]	Kd [5] [µM]	stoichiometry N [6]	rate of pyrene–actin polymerization, 1 μM mutant, 2.0 μM G-actin, against wild-type emerin [4]
wild-type emerin (residues 1–222), the full nucleoplasmic domain (domain or fragment, emerin, residues 1–222, the entire nucleoplasmic domain, lacking the transmembrane domain; also called emr; WT; source: expressed in bacteria and purified) MDNYADLSDTELTTLLRRYNIPHGPVVGSTRRLYEKKIFEYETQRRRLSPPSSSAASSYSFSDLNSTRGDADMYDLPKKEDALLYQSKGYNDDYYEESYFTTRTYGEPESAGPSRAVRQSVTSFPDADAFHHQVHDDDLLSSSEEECKDRERPMYGRDSAYQSITHYRPVSASRSSLDLSYYPTSSSTSFMSSSSSSSSWLTRRAIRPENRAPGAGLGQDRQ	0.43 µM and 0.3 to 0.5 µM	0.48 µM and 0.3 to 0.5 µM	0.38 µM and 0.35 to 0.45 µM	2.3 to 2.7	≤ 8	10	4	0.42	~300 actin monomers per emerin molecule	
emerin (residues 1–222) alanine substitution mutant m196 (domain or fragment) MDNYADLSDTELTTLLRRYNIPHGPVVGSTRRLYEKKIFEYETQRRRLSPPSSSAASSYSFSDLNSTRGDADMYDLPKKEDALLYQSKGYNDDYYEESYFTTRTYGEPESAGPSRAVRQSVTSFPDADAFHHQVHDDDLLSSSEEECKDRERPMYGRDSAYQSITHYRPVSASRSSLDLSYYPTSSSTSFMSSSSAASSWLTRRAIRPENRAPGAGLGQDRQ										~50 % of wild-type emerin
